System: Escherichia coli TOP10
Experiment: shrunken log2 fold change of peptide-encoding DNA abundance (4.5 h post-induction vs induction); higher = less antimicrobial activity (less host growth inhibition)
Details: time post-induction: 4.5 h; library: site-saturation at positions 5, 18, 19, 20
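Note: peptides expressed intracellularly from a pBAD plasmid library in pooled LB shake-flask culture, induced with 0.3% L-arabinose, DNA abundance read by NGS, three biological replicates, DESeq2 with apeglm shrinkage.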

First: RRIRKRPPRLPRPRPRPACHPRP
Second: RRIRLRPPRLPRPRPRPNNYPRP
The “shrunken log2 fold change” value of the first is higher: 0.211 for the first, -0.577 for the second.

RRIRMRPPRLPRPRPRPKHYPRP and RRIRYRPPRLPRPRPRPEKYPRP are within 0.2 log units of each other in “shrunken log2 fold change” value: -0.0523 for the first, -0.00973 for the second.

RRIRCRPPRLPRPRPRPGKNPRP and RRIRNRPPRLPRPRPRPFQFPRP are within 0.2 log units of each other in “shrunken log2 fold change” value: -0.133 for the first, -0.0984 for the second.

Compared with RRIRDRPPRLPRPRPRPEPDPRP, RRIRQRPPRLPRPRPRPKNTPRP is lower in “shrunken log2 fold change” value: 1.33 for the first, -0.394 for the second.

RRIRLRPPRLPRPRPRPTHNPRP and RRIRRRPPRLPRPRPRPSSMPRP are within 0.2 log units of each other in “shrunken log2 fold change” value: -0.0209 for the first, -0.143 for the second.

RRIRTRPPRLPRPRPRPSLLPRP and RRIRRRPPRLPRPRPRPYAMPRP are within 0.2 log units of each other in “shrunken log2 fold change” value: -0.0532 for the first, -0.121 for the second.

RRIRSRPPRLPRPRPRPFWVPRP and RRIRSRPPRLPRPRPRPMYTPRP are within 0.2 log units of each other in “shrunken log2 fold change” value: 0.106 for the first, -0.0916 for the second.

Going from RRIRVRPPRLPRPRPRPNMWPRP to RRIRPRPPRLPRPRPRPTPGPRP, the “shrunken log2 fold change” value rises from -0.327 to 0.533.

RRIRMRPPRLPRPRPRPHMCPRP and RRIRWRPPRLPRPRPRPNPEPRP are within 0.2 log units of each other in “shrunken log2 fold change” value: 0.000241 for the first, -0.0123 for the second.

RRIRPRPPRLPRPRPRPFLVPRP and RRIRFRPPRLPRPRPRPHCFPRP are within 0.2 log units of each other in “shrunken log2 fold change” value: -0.0765 for the first, -0.0267 for the second.

RRIRQRPPRLPRPRPRPDLKPRP and RRIRERPPRLPRPRPRPSGYPRP are within 0.2 log units of each other in “shrunken log2 fold change” value: -0.0178 for the first, -0.0887 for the second.

First: RRIRVRPPRLPRPRPRPEGDPRP
Second: RRIRMRPPRLPRPRPRPRYPPRP
The “shrunken log2 fold change” value of the first is higher: 0.297 for the first, 0.0438 for the second.

Going from RRIRSRPPRLPRPRPRPSNEPRP to RRIRPRPPRLPRPRPRPVCQPRP, the “shrunken log2 fold change” value rises from -0.476 to -0.1.

Going from RRIRDRPPRLPRPRPRPPMIPRP to RRIRRRPPRLPRPRPRPFTNPRP, the “shrunken log2 fold change” value rises from -0.588 to 0.103.

Going from RRIRCRPPRLPRPRPRPGCVPRP to RRIRSRPPRLPRPRPRPGFAPRP, the “shrunken log2 fold change” value rises from 0.248 to 0.502.

RRIRHRPPRLPRPRPRPVNCPRP and RRIRIRPPRLPRPRPRPTHCPRP are within 0.2 log units of each other in “shrunken log2 fold change” value: 0.00367 for the first, -0.00414 for the second.

Going from RRIRERPPRLPRPRPRPCSWPRP to RRIRNRPPRLPRPRPRPLFSPRP, the “shrunken log2 fold change” value falls from -0.0335 to -0.753.

First: RRIRSRPPRLPRPRPRPWDRPRP
Second: RRIRDRPPRLPRPRPRPAPWPRP
The “shrunken log2 fold change” value of the first is lower: -0.0645 for the first, 0.226 for the second.

Compared with RRIRVRPPRLPRPRPRPARFPRP, RRIRARPPRLPRPRPRPYQGPRP is lower in “shrunken log2 fold change” value: 0.16 for the first, -0.135 for the second.

Going from RRIRDRPPRLPRPRPRPVPWPRP to RRIRKRPPRLPRPRPRPELWPRP, the “shrunken log2 fold change” value rises from 0.189 to 1.42.

RRIRDRPPRLPRPRPRPQEHPRP and RRIRTRPPRLPRPRPRPITRPRP are within 0.2 log units of each other in “shrunken log2 fold change” value: -0.0802 for the first, -0.0822 for the second.

Compared with RRIRHRPPRLPRPRPRPLISPRP, RRIRQRPPRLPRPRPRPARLPRP is higher in “shrunken log2 fold change” value: -0.387 for the first, 0.0512 for the second.

RRIRIRPPRLPRPRPRPFWPPRP and RRIRHRPPRLPRPRPRPEMRPRP are within 0.2 log units of each other in “shrunken log2 fold change” value: -0.056 for the first, 0.122 for the second.

RRIRQRPPRLPRPRPRPFQGPRP and RRIRPRPPRLPRPRPRPSPEPRP are within 0.2 log units of each other in “shrunken log2 fold change” value: -0.0134 for the first, -0.0109 for the second.

Compared with RRIRPRPPRLPRPRPRPNSSPRP, RRIRDRPPRLPRPRPRPFTDPRP is higher in “shrunken log2 fold change” value: -0.396 for the first, 0.00624 for the second.

Compared with RRIRDRPPRLPRPRPRPRSWPRP, RRIRVRPPRLPRPRPRPHHSPRP is lower in “shrunken log2 fold change” value: 0.131 for the first, -0.593 for the second.

First: RRIRQRPPRLPRPRPRPSMQPRP
Second: RRIRARPPRLPRPRPRPPSGPRP
The “shrunken log2 fold change” value of the first is lower: -0.0429 for the first, 0.597 for the second.

First: RRIRFRPPRLPRPRPRPMKHPRP
Second: RRIRMRPPRLPRPRPRPEQVPRP
The “shrunken log2 fold change” value of the first is lower: -0.149 for the first, 0.493 for the second.

First: RRIRSRPPRLPRPRPRPTYHPRP
Second: RRIRWRPPRLPRPRPRPIAFPRP
The “shrunken log2 fold change” value of the first is lower: -0.492 for the first, 0.171 for the second.

RRIRVRPPRLPRPRPRPQWSPRP and RRIRHRPPRLPRPRPRPMLAPRP are within 0.2 log units of each other in “shrunken log2 fold change” value: -0.201 for the first, -0.144 for the second.

Going from RRIRKRPPRLPRPRPRPGHKPRP to RRIRTRPPRLPRPRPRPYMAPRP, the “shrunken log2 fold change” value falls from 0.193 to -1.06.

RRIRSRPPRLPRPRPRPELKPRP and RRIRRRPPRLPRPRPRPYGRPRP are within 0.2 log units of each other in “shrunken log2 fold change” value: -0.0512 for the first, -0.0338 for the second.

Going from RRIRHRPPRLPRPRPRPPMGPRP to RRIRCRPPRLPRPRPRPFEWPRP, the “shrunken log2 fold change” value falls from 0.343 to -0.0143.

Compared with RRIRNRPPRLPRPRPRPRGFPRP, RRIRWRPPRLPRPRPRPEGSPRP is higher in “shrunken log2 fold change” value: 0.443 for the first, 0.754 for the second.

First: RRIRARPPRLPRPRPRPMDLPRP
Second: RRIRERPPRLPRPRPRPCKVPRP
The “shrunken log2 fold change” value of the first is lower: -0.292 for the first, -0.00382 for the second.

RRIRNRPPRLPRPRPRPADWPRP and RRIRERPPRLPRPRPRPVNQPRP are within 0.2 log units of each other in “shrunken log2 fold change” value: 0.044 for the first, -0.123 for the second.

RRIRNRPPRLPRPRPRPWLWPRP and RRIRDRPPRLPRPRPRPWSVPRP are within 0.2 log units of each other in “shrunken log2 fold change” value: 0.165 for the first, 0.0902 for the second.

With RRIRARPPRLPRPRPRPMSFPRP the “shrunken log2 fold change” value was -0.0283.

From the supplement of paper PMC9112550, “Optimization of the antimicrobial peptide Bac7 by deep mutational scanning” (BMC Biology, 2022)
